Laboratory results as given in paper PMC6365017 (Journal of molecular biology, 2018).
Changes are numbered by the printed parent chain. Names and notes keep the numbering of the source.

Key:
[1] = target: T1, ZmALDH12 (Zea mays, UniProt A0A2H4PMI3); test: microscale thermophoresis, label-free; assay type: binding
[2] = target: ZmALDH12 (Zea mays, UniProt A0A2H4PMI3, C330A); test: microscale thermophoresis; assay type: binding
[3] = target: T1, ZmALDH12; test: microscale thermophoresis; assay type: binding
[4] = substrate: O=C[C@H](O)COP(=O)(O)O; test: NADH formation, spectrophotometry/fluorescence; assay type: biochemical, Zea mays; details: 3.0 mM NAD+, 100 mM pyrophosphate pH 7.5, 30 °C
[5] = substrate: N[C@@H](CCCC=O)C(=O)O; test: NADH formation, spectrophotometry/fluorescence; assay type: biochemical, Zea mays; details: 3.0 mM NAD+, 100 mM pyrophosphate pH 7.5, 30 °C
[6] = substrate: NC(CCC=O)C(=O)O; test: NADH formation, spectrophotometry/fluorescence; assay type: biochemical, Zea mays; details: 3.0 mM NAD+, 100 mM pyrophosphate pH 7.5, 30 °C
[7] = substrate: NC(CCC=O)C(=O)O; test: NADH formation, spectrophotometry/fluorescence; assay type: biochemical, Physcomitrium patens; details: 3.0 mM NAD+, 100 mM pyrophosphate pH 7.5, 30 °C
[8] = substrate: N[C@@H](CCCC=O)C(=O)O; test: NADH formation, spectrophotometry/fluorescence; assay type: biochemical, Physcomitrium patens; details: 3.0 mM NAD+, 100 mM pyrophosphate pH 7.5, 30 °C
[9] = substrate: O=CCCCC(=O)O; test: NADH formation, spectrophotometry/fluorescence; assay type: biochemical, Physcomitrium patens; details: 3.0 mM NAD+, 100 mM pyrophosphate pH 7.5, 30 °C

N[C@@H](CCC(=O)O)C(=O)O [glutamate] gave a Kd [1] of 3.1 ± 0.3 mM.

Work on NC(CCC=O)C(=O)O (racemic) [GSAL] yielded a Kd [2] of 315 ± 48 µM and a Kd [3] of 166 ± 14 µM.

Molecule NC(=O)c1ccc[n+]([C@@H]2O[C@H](COP(=O)(O)OP(=O)(O)OC[C@H]3O[C@@H](n4cnc5c(N)ncnc54)[C@H](O)[C@@H]3O)[C@@H](O)[C@H]2O)c1 [NAD^+] has a Kd [3] of 186 ± 25 µM.

In the case of O=CCCCC(=O)O [GRSAL], the Kd [3] is reported as 34 ± 11 µM.

B1: ZmALDH12 (Zea mays) (protein)
chain: APFACVSRWLHTPSFATVSPQEVSGSSPAEVQNFVQGSWTASANWNWIVDPLNGDKFIKVAEVQGTEIKSFMESLSKCPKHGLHNPLKAPERYLMYGDISAKAAHMLGQPTVLDFFAKLIQRVSPKSYQQALAEVQVSQKFLENFCGDQVRFLARSFAVPGNHLGQRSNGYRWPYGPVAIITPFNFPLEIPLLQLMGALYMGNKPVLKVDSKVSIVMEQMIRLLHDCGLPAEDMDFINSDGAVMNKLLLEANPKMTLFTGSSRVAEKLAADLKGRVKLEDAGFDWKILGPDVQEVDYVAWVCDQDAYACSGQKCSAQSVLFMHKNWSSSGLLEKMKKLSERRKLEDLTIGPVLTVTTEAMIEHMNNLLKIRGSKVLFGGEPLANHSIPKIYGAMKPTAVFVPLEEILKSGNFELVTKEIFGPFQVVTEYSEDQLELVLEACERMNAHLTAAIVSNDPLFLQDVLGRSVNGTTYAGIRARTTGAPQNHWFGPAGDPRGAGIGTPEAIKLVWSCHREIIYDVGPVPESWALPSAT
B1 showed a Km [4] of 1860 ± 99 µM, a kcat [4] of 0.4 ± 0.1 s⁻¹ and a kcat/Km [4] of 210 ± 20 M⁻¹ s⁻¹. The Km [5] was 173 ± 12 µM, the kcat [5] was 0.04 ± 0.02 s⁻¹ and the kcat/Km [5] was 200 ± 20 M⁻¹ s⁻¹.

B2: ZmALDH12 (Zea mays; K329A) (protein)
chain: B1 chain with K313A
B2 was tested, and the Km [6] was 958 ± 47 µM and the kcat [6] was 0.26 ± 0.01 s⁻¹.

B3: PpALDH12 (Physcomitrium patens) (protein)
chain: SSTLLSDHRPQSSLSFASCDADKLSEAHQYQMHNLVQGKWEQTSKSIELLDPLNGEKFISVPDTSIDEISPFVQSLRACSKSGLHNPLKNPERYLLYGDIMAKAAHLLKQPQVETFFARLIQRVAPKSFAQAVGEVTVTQKFLENFSGDQVRFLARSFVVPGNYQGQQSNGMRWPYGPVAIITPFNFPLEIPALQALGALFMGNKPILKVDSKVSIVMEQFIRLLHKCGMPPTDMDFINSDGPVMNKLLLEAEPKTTLFTGSSKVAEKLALDLKGRVKLEDAGFDWKILGPDVQNEDYVAWVCDQDAYACSGQKCSAQSILFMHENWANQNFLERLKKLASKRKLEDLTVGPVLTVTTERMLDHVKNLLAIPGARVEFGGKPLTNHTIPDVYGALEPTAVFVPLKEILRNEENFALATTEIFGPFQILTEYKHEDLPLVFEACERMHAHLTAAVVSNDVHFLQEVLSNTVNGTTYAGIRARTTGAPQNHWFGPAGDPRGAGIGTPEAIKLVWSCHREIIQDVGPIPNGWSTPQCT
Work on B3 yielded a Km [7] of 228 ± 40 µM, a kcat [7] of 0.44 ± 0.05 s⁻¹ and a kcat/Km [7] of 1900 ± 600 M⁻¹ s⁻¹. It also gave a Km [8] of 211 ± 13 µM, a kcat [8] of 0.005 ± 0.001 s⁻¹ and a kcat/Km [8] of 26 ± 2 M⁻¹ s⁻¹. It also gave a Km [9] of 82 ± 6 µM, a kcat [9] of 0.3 ± 0.02 s⁻¹ and a kcat/Km [9] of 3700 ± 600 M⁻¹ s⁻¹.
